# According to patent US20090226456A1 (published 2009):
# B1: Soluble human FLAG-FasL (synthesized at HGS) (ligand)
# chain: DYKDDDDKQIGHPSPPPEKKELRKVAHLTGKSNSRSMPLEWEDTYGIVLLSGVKYKKGGLVINETGLYFVYSKVYFRGQSCNNLPLSHKVYMRNSKYPQDLVMMEGKMMSYCTTGQMWARSSYLGAVFNLTSADHLYVNVSELSLVNFEESQTFFGLYKL
# notes: Called trimerized in the BIAcore experiment; cross-linked with anti-FLAG antibody in the cell assays; also called FasL-Flag; trimerized FLAG-FasL
# B2: BCMA on transiently transfected cells (receptor, UniProt Q02223 1-184, looked up)
# chain: MLQMAGQCSQNEYFDSLLHACIPCQLRCSSNTPPLTCQRYCNASVTNSVKGTNAILWTCLGLSLIISLAVFVLMFLLRKINSEPLKDEFKNTGSGLLGMANIDLEKSRTGDEIILPRGLEYTVEECTCEDCIKSKPKVDSDHCFPLPAMEEGATILVTTKTNDYCKSLPAALSATEIEKSISAR
# notes: whole, on cells
# B3: Full-length human TR6 (without Fc) (receptor)
# chain: VAETPTYPWRDAETGERLVCAQCPPGTFVQRPCRRDSPTTCGPCPPRHYTQFWNYLERCRYCNVLCGEREEEARACHATHNRACRCRTGFFAHAGFCLEHASCPPGAGVIAPGTPSQNTQCQPCPPGTFSASSSSSEQCQPHRNCTALGLALNVPGSSSHDTLCTSCTGFPLSTRVPGAEECERAVIDFVAFQDISIKRLQRLLQALEAPEGWGPTPRAGRAALQLKLRRRLTELLGAQDGALLVRLLQALRVARMPGLERSVRERFLPVH
# notes: also called TR6-non-Fc; TR6 non-Fc
# B4: TR2-Fc (extracellular domain of TR2, aa 1-192, fused to the Fc domain of human IgG1) (Fc fusion)
# chain: LPSCKEDEYPVGSECCPKCSPGYRVKEACGELTGTVCEPCPPGTYIAHLNGLSKCLQCQMCDPAMGLRASRNCSRTENAVCGCSPGHFCIVQDGDHCAACRAYATSSPGQRVQKGGTESQDTLCQNCPPGTFSPNGTLEECQHQTKCSWLVTKA
# notes: The range is as cloned; also called HveA-Fc; HveA; not shown: Fc domain of human IgG1
# What was measured:
# [1] = biological target: T1, Fas receptor on Jurkat or HT-29 cells (human, UniProt P25445 26-335); assay: cell-based or functional assay
# T1 sequence (looked up): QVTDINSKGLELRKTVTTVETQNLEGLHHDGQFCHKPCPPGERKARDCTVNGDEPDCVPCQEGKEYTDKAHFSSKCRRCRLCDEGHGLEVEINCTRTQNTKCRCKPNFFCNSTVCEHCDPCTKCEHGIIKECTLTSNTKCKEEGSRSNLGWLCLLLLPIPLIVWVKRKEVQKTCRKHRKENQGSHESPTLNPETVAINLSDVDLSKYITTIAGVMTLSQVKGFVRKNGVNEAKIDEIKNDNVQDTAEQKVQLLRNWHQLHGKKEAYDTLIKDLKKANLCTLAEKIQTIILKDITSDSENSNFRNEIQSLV
# [2] = biological target: T2, TNFR6 alpha-Fc (full length TNFR-6 alpha, amino acids 1-300 of SEQ ID NO:2, fused to an Fc domain) (human, UniProt O95407 30-300); assay: BIAcore, TR6-Fc immobilized, trimerized FLAG-FasL soluble
# T2 construct: Cloned as aa 1-300; disulfide-linked dimer; also called TR6-Fc; TNFR6-Fc; not shown: Fc domain of human IgG1
# T2 sequence: B3 chain
# [3] = biological target: B3; assay: BIAcore, FasL-Flag soluble
# [4] = biological target: T3, FLAG-tagged soluble TNF-gamma-beta (aa 72-251) (human, UniProt O95150 72-251); assay: flow cytometry on transiently transfected cells
# T3 construct: also called FLAG-TNF-gamma-beta; FLAG-TL1β
# T3 sequence: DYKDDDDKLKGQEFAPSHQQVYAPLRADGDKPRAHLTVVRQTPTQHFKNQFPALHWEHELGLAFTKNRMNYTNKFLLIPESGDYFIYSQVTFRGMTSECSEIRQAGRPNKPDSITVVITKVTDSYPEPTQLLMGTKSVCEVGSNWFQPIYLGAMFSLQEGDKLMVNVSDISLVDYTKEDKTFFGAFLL
# Description: (§1) One million cells, in 0.1 ml of FACS buffer (PBS, 0.1% BSA, 0.1% NaN₃), were incubated with 0.1-1 microgram of protein or antibody at RT for 15 min. The cells were washed with 3 ml of FACS buffer, reacted with biotinylated primary antibody, and stained with PE-conjugated secondary antibody at RT for 15 min. Cells were then washed again, resuspended in 0.5 microgram/ml of propidium iodide, and live cells were gated and analyzed on a FACScan using the CellQuest software (BD Biosciences).
# [5] = biological target: T4, full length TNF-gamma-beta on the cell surface of transfected cells (human, UniProt O95150 1-251); assay: flow cytometry competition; competitor DR3-Fc
# T4 construct: whole, on cells; also called TNF-gamma-beta expressing cells
# T4 sequence (looked up): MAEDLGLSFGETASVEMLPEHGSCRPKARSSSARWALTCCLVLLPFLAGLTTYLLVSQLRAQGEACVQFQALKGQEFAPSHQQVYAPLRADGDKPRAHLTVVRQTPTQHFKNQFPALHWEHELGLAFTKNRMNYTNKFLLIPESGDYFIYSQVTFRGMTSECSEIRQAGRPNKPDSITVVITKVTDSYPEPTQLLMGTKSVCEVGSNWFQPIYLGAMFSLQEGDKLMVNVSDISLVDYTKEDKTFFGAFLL
# Description: as §1
# [6] = biological target: T4, full length TNF-gamma-beta on the cell …; assay: flow cytometry, receptor-Fc on HEK293F cells expressing full length TNF-gamma-beta
# Description: as §1
molecule,measurement,setting,value
sFas ligand (Alexis Corporation) with a FLAG epitope tag at its N-terminus (from UniProt P48023 103-281),"% Cells undergoing apoptosis (annexin/propidium iodide FACS, Jurkat cells), FasL (20 ng) alone (% cells undergoing apoptosis)",[1],8.87
same,"Jurkat cell viability (ALOMAR blue, OD 570 nm-630 nm) (% decrease in cell viability)",[1],50
B1,"Jurkat apoptosis (annexin staining, FACS)",[1],~7 fold
same,Kd,[2],4.6 nM
same,Kd,[3],17 nM
B2,binding result,[4],no binding
B3,molar ratio of TR6 to DR3-Fc at which no DR3-Fc binding was detected,[5],2 molar ratio (2:1)
B4,binding result,[6],no binding
